For experiment [1], the target named is mouse precursor form of IL-1β (preIL-1β) (mouse) (UniProt P10749).
Experiment [2] concerns the target T1, murine interleukin-1β converting enzyme (ICE) (mouse).
T1 sequence: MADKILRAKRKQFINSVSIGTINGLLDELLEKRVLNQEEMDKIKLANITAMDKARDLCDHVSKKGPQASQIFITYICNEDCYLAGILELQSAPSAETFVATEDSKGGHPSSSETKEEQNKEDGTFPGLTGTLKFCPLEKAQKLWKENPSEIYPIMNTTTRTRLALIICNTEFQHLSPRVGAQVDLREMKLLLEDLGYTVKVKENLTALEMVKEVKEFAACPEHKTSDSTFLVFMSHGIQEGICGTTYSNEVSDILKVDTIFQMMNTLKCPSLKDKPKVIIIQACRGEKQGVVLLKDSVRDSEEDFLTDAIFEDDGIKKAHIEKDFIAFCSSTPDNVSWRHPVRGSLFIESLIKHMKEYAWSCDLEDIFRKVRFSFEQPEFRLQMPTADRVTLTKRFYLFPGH

In the case of “murine interleukin-1β converting enzyme (ICE)”, in experiment [1], the IL-1β (pg/ml) released into the medium by macrophages stimulated with LPS and ATP, ELISA was 4430 pg/mL. In the case of Ac-YVAD-aldehyde [tetrapeptide aldehyde Ac-YVAD-CHO], the percent inhibition of matIL-1β release from LPS-treated ICE +/+ macrophages in experiment [2] came to 78%.

Source of the values: patent US6100445.
